Laboratory results as given in patent US20190248902A1 (published 2019).

T1: soluble human ASGR-1 carbohydrate binding domain (CBD; amino acid residues 154-281; N-terminal 6xHis tag) (human, UniProt P07306 154-281)
T1 construct: also called ASGR-1 CBD
T1 sequence: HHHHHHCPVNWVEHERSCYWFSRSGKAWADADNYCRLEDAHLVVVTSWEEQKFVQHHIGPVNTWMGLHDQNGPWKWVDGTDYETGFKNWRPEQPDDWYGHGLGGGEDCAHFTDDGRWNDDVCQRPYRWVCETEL

T2: human ASGR-1 (wild type) (human, UniProt P07306 1-291)
T2 construct: also called wt ASGR1; huASGR-1
T2 sequence: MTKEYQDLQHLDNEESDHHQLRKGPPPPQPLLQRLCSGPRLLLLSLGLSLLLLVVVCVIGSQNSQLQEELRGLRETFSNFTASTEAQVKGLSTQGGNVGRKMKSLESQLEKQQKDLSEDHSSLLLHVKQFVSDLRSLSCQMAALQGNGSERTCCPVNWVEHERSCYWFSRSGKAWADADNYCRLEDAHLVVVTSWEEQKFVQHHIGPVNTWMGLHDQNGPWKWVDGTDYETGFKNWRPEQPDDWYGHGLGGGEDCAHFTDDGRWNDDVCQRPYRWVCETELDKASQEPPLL

T3: human ASGR-1 mutant construct H203 (human, UniProt P07306 1-291)
T3 construct: Arg/Glu scanning: non-arginine residues were changed to arginine; Transiently expressed on CHO-S cells
T3 sequence: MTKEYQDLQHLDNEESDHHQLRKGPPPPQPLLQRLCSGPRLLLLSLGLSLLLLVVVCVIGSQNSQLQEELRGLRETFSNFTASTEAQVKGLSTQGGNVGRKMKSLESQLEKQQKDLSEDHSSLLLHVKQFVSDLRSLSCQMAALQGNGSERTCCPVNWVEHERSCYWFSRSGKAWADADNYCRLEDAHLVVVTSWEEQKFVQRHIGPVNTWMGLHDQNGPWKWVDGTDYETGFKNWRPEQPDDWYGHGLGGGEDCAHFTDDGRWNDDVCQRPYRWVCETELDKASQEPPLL

B1: 75G3 (antibody, V domains shown)
VH: QVQLQQWGAGLLKPSETLSLTCAVYGGSLSGSYWSWIRQPPGKGLEWIGEINLSGSTNYNPSLKSRVTISVDTSKSQFSLTLRSVTAADTAVYYCARDYGGLDYWGQGTLVTVSS
VL: EIVLTQSPGTLSLSPGERATLSCRARQNVDSSYLAWYQQKPGQAPRLLIYGASSRATGIPDRFSGSGSGTDFTLTISRLEPEDFAVFYCQQYERSPWTFGQGTKVEIK
notes: mAb
B2: 72G9 (antibody, V domains shown)
VH: EVQLVESGGGLVKPGGSLRLSCAASGFTFSSYSMNWVRQAPGKGLEWVSSISGSSSYIYYADSVKGRFTISRDNAKNSLYLQMNSLRAEDTAVYFCARGGSRGFDPWGQGTLVTVSS
VL: DIQMTQSPSSLSASVGDRVTITCRASQSITSYLNWYQQKPGKAPKLLIYTASSLQSGVPSRFSGSGSGTDFTLTISSLQPEDFATYYCQQSHSFPFTFGPGTKVDIK
notes: mAb
B3: 194C10 (antibody, V domains shown)
VH: QVQLQQWGAGLLKPSETLSLTCAVSGGSFRYYYWSWIRQPPGKGLEWFGEINHSGSTNYNPSLKSRVTISIDTSKNQFSLKLRSVTAADTAVYYCARDYGAFDIWGQGTMVTVSS
VL: EIVLTQSPGTLSLSPGERATLSCRASPSVNSGYLAWYQQKPGQTPRLLIFGASSRATGIPDRFSASGSGADFTLTISRLEPEDFAVYFCQQYESSPWTFGQGTKVEIK
notes: mAb
B4: 194A4 (antibody, V domains shown)
VH: QVQLVQSGTEVKKPGASLKVSCKASGYTFTVYYLNWVRQAPGQGLEWMGWINPNSGGTNYAQKFQGRVTMTRDTSISTAYMELSRLRSDDTAVYYCARGYDILTGWGQGTLVTVSS
VL: EIVLTQSPGTLSLSPGERATLSCRASRGVSNIYLAWYQQKPGQAPRLLIYGASNRATGIPDRFSGSGSGTDFTLTISRLEPEDFAVYYCQHNDYSMFTFGPGTKVDIK
notes: mAb
B5: 218G4 (antibody, V domains shown)
VH: QVQLVESGGGVVQPGRSLRLSCAASGFTFSSYGLHWVRQAPGKGLEWVAVIWYDGSNKYYADSVKGRFTISRDNSKNTLYLQMNSLRVEDTAVYYCANWYYYYYGMDVWGQGTTVTVSS
VL: QSVLTQPPSVSAAPGQKVTISCSGSSSNIGNNYVSWYQQLPGTAPKLLLYDSNKRPSGIPARFSGSKSGTSATLGITGLQTGDEADYYCGTWDSSLNTVVFGGGTKLTVL
notes: mAb
B6: 176H4 (antibody, V domains shown)
VH: QVQLVESGGGVVQPGRSLRLSCAASGFTFSSYGMHWVRQAPGKGLEWVAIIWYDGSYKYYADSVKGRFTISRDNSKNTLYLQMSSLRAEDTAVYYCARDAHDFWSGYFAYWGQGALVTVSS
VL: DIVMTQTPLSLSVTPGQPASISCKSSQSLLHGDGKTYLYWYLQKPGQPPQLLIYEVSNRFSGVPDRFSGSGSGTDFTLKISRVEAEDVGIYYCMQSIQIPWTFGQGTRVEIK
notes: mAb
B7: 190F8 (antibody, V domains shown)
VH: QVQLVESGGGVVQPGRSLRLSCAASGFTFSTYGMHWVRQAPGKGLEWVAVIWYDGSNKNYADSVKGRFTISRDNSKNTLYLQMNSLRAEDTAVYYCARDQGVGYDGLDVWGQGTTVTVSS
VL: DIQMTQSPSSLSASVGDRVTITCRTSQGIGNYLAWFQQKPGKAPKSLLYKASSLQSGVPSKFSGSGSGTDFTLTISSLQPEDFATYYCQQYMTYPLTFGGGTKVEIK
notes: mAb
B8: 197G3 (antibody, V domains shown)
VH: QVQLVESGGGVVQPGRSLRLSCVASGFTFSSHGMHWVRQAPGKGLEWVAVIWYDGSNKNYADSVKGRFTISRDNSKNTLYLQMNSLRAEDTAVYYCARDPSVGYDGMDVWGQGTTVTVSS
VL: DIQMTQSPSSLSASVGDRVTITCRASQGIGNHLAWFQQKPGKAPKSLIYAASSLQSGVPSKFSGSRSGTDFSLTISSLQPEDFATYYCQQYSNYPVTFGPGTKVDIK
notes: mAb
B9: 194C1 (antibody, V domains shown)
VH: QVQLVESGGGVVQPGRSLRLSCAASGFTFSSYGMHWVRQAPGKGLEWVAVIWYDGSNEHYADSVKGRFTISRDNSKNTLYLQMNSLRAEDTAVYYCARNRGVGYYGLDVWGQGTTVTVSS
VL: DIQMTQSPSSLSASVGDRVTITCRASQGISNYLAWFQQKPGKAPKSLIYAASSLQSGVPSKFSGSGSGTDFTLTISSLQPEDFATYYCLHYLTYPLTFGGGTKVEIK
notes: mAb
B10: 198G3 (antibody, V domains shown)
VH: QVQLVESGGGVVQPGRSLKLSCAASGFTFSTYGMHWVRQAPGKGLEWVAVIWYDGTNKNYADSVKGRFTISRDNSKNTLCLQMNSLRAEDTAVYYCARDQGVGYDGLDVWGQGTTVTVSS
VL: DIQMAQSPSSLSASVGDRVTITCRTSQGIGKYLAWFQQKPGKAPKSLLYKASSLQGGVPSKFSGSGSGTDFTLTISSLQPEDFATYYCQQYMTYPLTFGGGTKVEIK
notes: mAb
B11: 191G10 (antibody, V domains shown)
VH: QVQLVESGGGVVQPGRSLRLSCAASGFTFSSYGMHWVRQAPGKGLEWVAVIWYDGSNKNYADSVKGRFTISRDNSKNTLYLQMNSLRAEDTAVYYCARDQGVGYDGLDVWGQGTTVTVSS
VL: DIQMTQSPSSLSASVGDRVTITCRTSQGIGKYLAWFQQKPGKAPKSLLYKVSSLQSGVPSKFSGSGSGTDFTLTISSLQPEDFATYYCQQYMTYPLTFGGGTKVEIK
notes: mAb
B12: 191G1 (antibody, V domains shown)
VH: QVQLVESGGGVVQPGRSLRLSCAASGFTFSSYGMHWVRQAPGKGLEWVAVIWYDGSNEHYADSVKGRFTISRDNSKNTLYLQMNSLRAEDTAVYYCARDRGVGYYGLDVWGQGTTVTVSS
VL: DIQMTQSPSSLSASVGDRVTITCRASQGISNYLAWFQQKPGKAPKSLIYAASSLQSGVPSKFSGSGSGTDFTLTISSLQPEDFATYYCQHYLTYPLTFGGGTKVEIK
notes: mAb

Assays:
[1] = target: T1, soluble human ASGR-1 carbohydrate …; assay: Octet BLI, mAb on AR2G tips, 1:1 fit
From the text: To quantitate the binding affinity of specific antibodies for ASGR-1 (either purified from hybridoma supernatants or made recombinantly), association and dissociation rates can be measured using a ForteBio Octet instrument. […] Experimental kinetic results were globally fit to a 1:1 binding model in order to determine the association and dissociation rate constants as well as the equilibrium dissociation constant. Association and dissociation times were chosen to ensure that curvature was present during association curves and measured dissociation levels dropped at least 5% from starting levels. All Octet buffers contained 10 mM Tris (pH7.5), 150 mM NaCl, 1 mM CaCl₂), 0.10 mg/ml BSA and 0.13% Triton X-100. Octet assays were run at 27° C. Because this assay only measures binding to the ASGR-1 CBD, antibodies that recognize epitopes partially or entirely outside the CBD and/or recognize ASGR-1 in the context of a native ASGR complex, for example, as could occur on cell membranes, may not score as positive in this assay.

[2] = target: T2, human ASGR-1 (wild type); assay: FACS, transfected CHO-S cells, mAb 5 ug/ml
Outline: (§1)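 Transiently transfected CHO-S cells expressing wild-type or mutant hASGR-1 incubated with antibody at 5 ug/ml, 1 h at 4 °C; bound antibody detected by Alexa Fluor 647 anti-Fc plus 7-AAD, by flow cytometry. Binding normalized to expression using an unaffected antibody (65C12), then to wild type; hits defined as >3× IQR above third quartile.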

[3] = target: T3, human ASGR-1 mutant construct H203; assay: FACS, transfected CHO-S cells, mAb 5 ug/ml
Outline: as §1

[4] = target: T2, human ASGR-1 (wild type); assay: flow cytometry, CHO-S:huASGR-1 cells, 11-point titration
Description: CHO—S stable high-expressing cell line were developed for both human ASGR-1 as well as mouse ASGR-1. A typical 384 well plate multiplex flow cytometery-based cell binding method is described as followed: Parental CHO—S cells and CHO—S:huASGR-1 cells were respectively labeled using a CellTrace CFSE Cell Proliferation Kit (ThermoFisher Catalog #C34554) and CellTrace Violet Cell Proliferation Kit (ThermoFisher Catalog#C34557) CHO—S:muASGR-1 were not labeled. 20 ul of cells at 4C were added to duplicate wells of the 384 well plate. The cells were equally mixed from all three cell lines (30K cells/well). Then 20 ul of the ASGR-1 antibodies (either purified from hybridoma supernatants or made recombinantly) were added in an 11-point dose response using a 1:2 fold serial dilution starting at 100 nM. The cells and antibodies were incubated for 30 min at 4C and then spun down and washed twice with FACS buffer containing 1 mM CaCl2. 30 ul of anti-hulgG-APC secondary antibodies were then added at a 1:1000 dilution) for 30 min at 4C and then washed once with the same buffer. 60 ul of PI (1:1000) was added and then the cells were read by a core flow cytometry facility. The cells were gated first for live cells, then for single cells and finally for the cell dyes to separate the mixed cells into the three different cell populations. Histograms of signal vs count representing the binding profile of each antibody at each antibody concentration were automatically analyzed for the median of the binding signal and then a binding graph was made with log 10 antibody concentration in nM on the X axis with […] from the duplicate wells on the Y-axis. The binding curves were fit with a standard four parameter sigmoidal binding curve and EC50's reported for all graphs with full curves.

Row | Binder | Kd [1] | FACS Binding Geomean [2] | FACS Binding Geomean [3] | EC50 [4]
1 | B1 | 1 nM | 37200 | 14500 | 1 nM
2 | B2 | 0.5 nM | 36500 | 18800 | 0.41 nM
3 | B3 | 4 nM | 28100 | 13200 | 0.56 nM
4 | B4 | 0.7 nM | 16300 | 12100 | 25 nM
5 | B5 | 2.6 nM | 12200 | 7930 | 2.2 nM
6 | B6 | 0.8 nM | 33500 | 10200 | 1 nM
7 | B7 | 0.6 nM | 36500 | 15100 | 9 nM
8 | B8 | 0.8 nM | 13300 | 3500 | 0.25 nM
9 | B9 | 1.3 nM | 20900 | 11000 | 0.11 nM
10 | B10 | 0.04 nM | 21500 | 13100 | 0.21 nM
11 | B11 | 0.5 nM | 33800 | 17000 | 0.31 nM
12 | B12 | 2.4 nM | 25300 | 10900 | 0.16 nM
